Reference: patent publication US20130309670

Experiments:
[1] = test system: Il2rg ZFN-1 (zinc finger-FokI nuclease) (synthetic construct); assay: cell_activity; conditions: pair ZFN-1+ZFN-2, clones with ZFN cleavage (6/192) in mouse F1H4 ES cells without LTVEC; 6.9% among non-targeted clones with LTVEC; 6 bp spacer
[2] = test system: Il2rg ZFN-2 (zinc finger-FokI nuclease) (synthetic construct); assay: cell_activity; conditions: pair ZFN-1+ZFN-2, clones with ZFN cleavage (6/192) in mouse F1H4 ES cells without LTVEC; 6.9% among non-targeted clones with LTVEC; 6 bp spacer

For “AGCTCCAAGGTCCTC (double strand) [Il2rg exon 1 ZFN-1 half-site (sense strand)]”, the activity [1] was 3.1%.

For “GTCTTCATTCGCACT (double strand) [Il2rg exon 1 ZFN-2 half-site (antisense strand)]”, the activity [2] was 3.1%.
